The results in this text go back to article PMC3537852.

One test addresses His-mAKAP 1286–1833. Nature of the test: SPR.
For test [1], the target named is myc-tagged full-length mAKAPβ with an internal deletion of residues 1257–1886. The test can be described thus: co-IP.

Where only a bound is given, the exact number is not on record here.

“His-RSK3, full-length, ERK and PDK1-phosphorylated (from UniProt Q15349 1-733) (enzyme)” displayed a fold decrease of binding affinity against unphosphorylated RSK3 with His-mAKAP 1286–1833 of 8 fold. The same measure, in the same setting: the value for “His-RSK3, full-length, ERK-phosphorylated (from UniProt Q15349 1-733) (enzyme)” was 5 fold. The substance “HA-tagged RSK3 (type 3 p90 ribosomal S6 kinase) (from UniProt Q15349 1-733) (enzyme)” had a percent reduction of RSK3 binding against full-length mAKAPβ in test [1] of more than 85%.
